# Experimental data taken from the nanobody polyreactivity screen of Harvey et al. (2022).
# Experiment: yeast display, Sf9 membrane polyspecificity reagent, FACS + sequencing; frameworks hold sequencing errors
# Method in brief: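 Polyreactivity labels are assigned by the sorting gate from which each nanobody was recovered. The gates were low and high (top ~1%), set on anti-HA fluorescence for expression and streptavidin fluorescence for reagent binding. Before sorting, galactose-induced (36–48 hours) yeast display cells were stained for 1 hour at 4 °C with 10% biotinylated, detergent-solubilized Sf9 membrane reagent.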
row,Sequence,polyreactivity (PSR sort gate)
1,QVQLVESGGGLVQAGGSLRLSCAASGSTFKWYAMGWYRQAPGKERELVAAITRGGSTSYADSVKGRFTISLDNAKNTVYLQMNSLKPEDTAVYYCAADYHYTKSMYYWGQGTQVTVSS,low polyreactivity
2,QVQLVESGGGLVQAGGSLRLSCAASGSTFKYNTMGWYRQAPGKESELVARISWSGTRTYYADSVKGRFTISRYNAKNTVYLQMNSLKPEDTAVYYCAKVSYFWSPYGYDSCGQGTQVTVSS,high polyreactivity
3,QVQLVESGGGLVQAGGSLRLSCAASGSTFKYYAMGWYRQAPGKEREFVAAITANGGRTYYADSVKGRFTISRDNAKNTVYLQMNSLKPEDTAVYYCAARTWYYYVYGYESWGQGTQVTVSS,high polyreactivity
4,QVQLVESGGGLVQAGGSLRLSCAASGSTFKYYAMGWYRQAPGKEREFVASINWSGVSTYYADSVKGRFTISRDNAKNTVYLQMNSLKPEDTAVYYCAARVRGKYDYWGQGTQVTVSS,high polyreactivity
5,QVQLVESGGGLVQAGGSLRLSCAASGSTFKYYAMGWYRQAPGKERELVASITRTGSSTYYADSVKGRFTISRDNAKNTVYLQMNSRKPEDTAVYYCNTGPHSVWWHYGYDYWGQGTQVTVSS,high polyreactivity
6,QVQLVESGGGLVQAGGSLRLSCAASGSTFLANTMGWYRQAPGKEREFVAAITRRGGSTYYADSVKGRFTISRDNAKNTVYLQMNSLKPEDTAVYYCNAEWDFQYPYDYWGQGTQVTVSS,low polyreactivity
7,QVQLVESGGGLVQAGGSLRLSCAASGSTFLDNAMGWYRQAPGKERELVASITSSGGNTYYADSVKGRFTISRDNAKNTVYLQLNSLTPEDTAVYYCAADAASYWRYNSANYDYDYWGQGTQVTVSS,low polyreactivity
8,QVQLVESGGGLVQAGGSLRLSCAASGSTFLGNAMGWYRQAPGKERELVAGITSGGTTNFADSVKGRFTISRDNAKNTVYLQMNSLKPEDTAVYYCNADVWIGQRLDPGYDFDYWGQGTQVTVSS,low polyreactivity
9,QVQLVESGGGLVQAGGSLRLSCAASGSTFLGNAMGWYRQAPGKERELVATITGSSGSTYYADSVKGRFTISRDNAKNTVYLQMNSLKPEDTAVYYCAAQRRVVGRHGLSLIRYDYWGQGTQVTVSS,low polyreactivity
10,QVQLVESGGGLVQAGGSLRLSCAASGSTFLGNVMGWYRQAPGKERELVAAISRGGSRTYYADSVKGRFTISRDNAKNTVYLQMNSLKPEDTAVYYCAAEPYAASRSGEFNYWGQGTQVTVSS,low polyreactivity
11,QVQLVESGGGLVQAGGSLRLSCAASGSTFLGNVMGWYRQAPGKERELVAAITSTGGNTYYADSVKGRFTISRDNAKNTVYLQMNSLKPEDTAVYYCAKKYVWTHNYWGQGTQVTVSS,low polyreactivity
12,QVQLVESGGGLVQAGGSLRLSCAASGSTFLGYDMGWYRQAPGKERELVAAISIGGSTYYADSVKGRFTISRDNAKNTVYLQMNSLKPEDTAVYYCARVTWGHQVIYGLSDYDSWGQGTQVTVSS,low polyreactivity
13,QVQLVESGGGLVQAGGSLRLSCAASGSTFLHSAMGWYRQAPGKEREFTYYADSVKGRFTISRDNAKNTVYLQMHSLKPEDTAGYYCNAGPYWSPYGDDVGYWGQGTQVTVSS,low polyreactivity
14,QVQLVESGGGLVQAGGSLRLSCAASGSTFLINAMGWYRQAPGKERELVAAISRDGSTNYADSVKGRFTISRDNAKNTVYLQMNSLKPEDTAVYYCAAVQGISVGRQPGYDYDYWGQGTQVTVSS,low polyreactivity
15,QVQLVESGGGLVQAGGSLRLSCAASGSTFLLYAMGWYRPAPGKERELVATISWGGDGTYYADSVKGRFTISRDNAKNTVYLQMNSLKPEDTAVYYCAAESYLVQFYFLYYYWGQGTQVTVSS,low polyreactivity
16,QVQLVESGGGLVQAGGSLRLSCAASGSTFLLYAMGWYRQEPGKERELVAAITWSGASTYYADSVKGRFTISRDNAKNTVYLQMNSLKPEDTAVYYCATRYRYRYWGQGTQVTVSS,high polyreactivity
17,QVQLVESGGGLVQAGGSLRLSCAASGSTFLLYDKGWYRQAPGKERELVAAITWSGGSTYYADSVKGRFTISRDNAKNTVYVQMNSLIPEDTAVYYCAADSLGDRYYYWGQGTQVTVSS,low polyreactivity
18,QVQLVESGGGLVQAGGSLRLSCAASGSTFLPYGMGWYRQAPGKERELVAAITQRGGSTYYADSVKGRFTISRDNAKNTVYLQMNSLKPEDTAVYYCAARYTGRRRLWTGPGYEYWGQGTQVTVSS,high polyreactivity
19,QVQLVESGGGLVQAGGSLRLSCAASGSTFLRNVMGWYRQAPGKERELVAAISSRGGSTHYADSVKGRFTISRDNAKNTVYLQMNSLKPEDTAVYYCNSERTAAQYVRAAYDYWGQGTQVTVSS,low polyreactivity
20,QVQLVESGGGLVQAGGSLRLSCAASGSTFLRYAMGWYRQAPGKERELVAAISVSGGSTYYADSVKGRFTISRDNAKNTVYLQMNSLKPEDTAVYYCNAVTKFHRRYNYWGQGTQVTVSS,high polyreactivity
21,QVQLVESGGGLVQAGGSLRLSCAASGSTFLSYAMGWYRQAPGKERELVAAISCRGGSTYYADSVKGRFTISRDNAKNTVYLQMNSLKPEDTAVYYCARVYRPSADTYNYWGQGTKVTVSS,high polyreactivity
22,QVQLVESGGGLVQAGGSLRLSCAASGSTFLSYAMGWYRQAPGTERELVAGIDWSTGDTYYADSEKGRFTISRDNAKNTVYLQMNSLKPEDTAVYYCNKANLYRFWEIDYWGQGTQVTLSS,high polyreactivity

row,Sequence,polyreactivity (PSR sort gate)
1,QVQLVESGGGLVQAGGSLRLSCAASGSTFLTNAIGWYRQATGKEREIVADITWSGGSTYYADSVKGRFTISRDNAKNTVYLQMNSLKPEDTAVYYCAVDAYSSVYLWGFVRFDYWGQGTQVTVSS,low polyreactivity
2,QVQLVESGGGLVQAGGSLRLSCAASGSTFLTYAMGWYRQAPGKERELVAAIRWSGGSTYYADSVKGRFTISRDNAKNTVYLQMNSLKPEDTAVYYCAARSPRASGNSDYWGQGTQVTVSS,high polyreactivity
3,QVQLVESGGGLVQAGGSLRLSCAASGSTFLVNAMGWYRQAPGKERELVAAISRSTGSTYYADSVKGRFTISRDNAKNTVYLQMNSLKPEDTAVYYCAVYRHGYGYNYWGQGSQVTVSS,high polyreactivity
4,QVQLVESGGGLVQAGGSLRLSCAASGSTFLYYAMGWYIQAPGKERELVAAISRSGGNTYYADSVKGRFTISRDNAKNTVYLQMNSLKPEDTAVDYCAKSPPGRGIRRLYYYWGQGTQVTVSS,high polyreactivity
5,QVQLVESGGGLVQAGGSLRLSCAASGSTFLYYAMGWYRPAPGKERELVAAIRWTAGSTYYADSVKGRFTISRDNAKNSVYLQMNSLKPEDTAVYYCAAVGYVRNYYTYEHWGQGTQVTVSS,low polyreactivity
6,QVQLVESGGGLVQAGGSLRLSCAASGSTFLYYAMGWYRQAPGKERELVAVISWSCVSTYYADSVKGRFTISRDNAKYTVYLQMNSLKPEDTAVSYCAADWDWRFHRMNYWGQGTQVTVSS,low polyreactivity
7,QVQLVESGGGLVQAGGSLRLSCAASGSTFLYYAMGWYRQAPGKERELVAVISWSGVSTYYADSVKGRFTISRYNAKNTVYLQMNSLKPEDTAVYYCNTGNHYIRTYGYWGLGTQVTVSS,low polyreactivity
8,QVQLVESGGGLVQAGGSLRLSCAASGSTFLYYGMGWYRQAPGKERALVAGIDGTGSSTYYADSVKGRFTISRDNAKNTVYLQMNSLKPEDTAVYYCAKRYPRYRSRYYYWGQGTQVTVSS,low polyreactivity
9,QVQLVESGGGLVQAGGSLRLSCAASGSTFNDNAMGWYRPAPGKERELVAAIRWSGGSTYYADSVKGRFTISRDNAKNTVYLQMNSLKPEDTAVYYCAASRRYYLTYRYYYWGQGTQVTVSS,high polyreactivity
10,QVQLVESGGGLVQAGGSLRLSCAASGSTFNDNAMGWYRQAPGKERELVAAIRWSGGSTYYADSVKGRFTISRDNAKNTVYLQMNSLKPEDTAVYYCAASRRYYLTYRYYYWGQGTQVTVSS,high polyreactivity
11,QVQLVESGGGLVQAGGSLRLSCAASGSTFNEYVMGWYRQAPGKERELVAAITGGGGRTYYADSVKGRFTISRDNAKNTVYLQMNSQKPEDTAVYYCAKRYLYGTYWGFFRYDYWGQGTQVTVSS,low polyreactivity
12,QVQLVESGGGLVQAGGSLRLSCAASGSTFNKYAMGWYRQAPGKERELVAAIRSNGVRTYYADSVKGRFTISRDNAKNTVYLQMNSLKPEDTAVYYCNKRYTYRYDYWGQGTQVTVSS,high polyreactivity
13,QVQLVESGGGLVQAGGSLRLSCAASGSTFNPYAMAWYRQAPGKEREFVAAISWRGGSTYYADSVKGRFTISRDNAKNTVYLQMNSLKPEDTAVYYCAARRLYSHTTSGRGYWGQGTQVTVSS,high polyreactivity
14,QVQLVESGGGLVQAGGSLRLSCAASGSTFNPYAMGWYRQAPGKERELVATITWRGTSTYYADSVKGRFTISRDNAKNTVYLQMNSLKPEDTPVYYCAARVRYKYDYWGQGTQVTVSS,high polyreactivity
15,QVQLVESGGGLVQAGGSLRLSCAASGSTFNRNAMGWYRQAPGKERELVAAISWRGDSTSYADSVKGRFTISRDNAKNTVYLQMNSLKPEDTAVYYCAAYRVILYYLYDYWGQGTQVTVSS,low polyreactivity
16,QVQLVESGGGLVQAGGSLRLSCAASGSTFNRNAMGWYRQAPGKERELVADISRGGRTYYSDSVKGRFTITRDNAKNTVYLQMNSLKPEDTAVFYCATVVSRGKQPFDMDYWGQGTQVTVSS,low polyreactivity
17,QVQLVESGGGLVQAGGSLRLSCAASGSTFNRNTMGWYRQAPGKERELLAAISRRGGSTYYADSVKGRFTISRDNAKNTVYLQMNSLKPEDTAVYYCAAGREYRVYKGAQEFDYWGQGTQVTVSS,high polyreactivity
18,QVQLVESGGGLVQAGGSLRLSCAASGSTFNRNTMGWYRQAPGKERELVAAITSSGGRTYYADSVKGRFTISRDNAKNTVYLQVNSLKPEDTAVYYCANVIRVLIAGRFDSWGQGTHVTVSS,high polyreactivity
19,QVQLVESGGGLVQAGGSLRLSCAASGSTFNRYAMGWYRQAPGKERELVAAISLSGGSTYYADSVKGRFTISRDNAKNTVYLQMNSLKPEDTAVYYCAADIFYYSSSYGYWGQGTQVTVSS,low polyreactivity
20,QVQLVESGGGLVQAGGSLRLSCAASGSTFNRYAMGWYRQAPGKERELVASISCSGGGSTYYADSVKGRFTISRDNAKNTVYLQMNSLKPEDTAVYYCAVSRDSYGGKGSVLYDYWGQGTQVTVSS,low polyreactivity
21,QVQLVESGGGLVQAGGSLRLSCAASGSTFNSYAMGWYRQAPGKEWELVAAITSSVGSTYYADSVKGRFTISRDNAKNTVYLQMNSLKPEDTAVYYCAADYFSFWYFSGYDYWGQGTQVTVSS,low polyreactivity
